Experimental data taken from article PMC9942873 (Immunity, 2023).

What was measured:
Assay in all cases: ELISA
Conditions in all cases: both partners purified
[1] = target: Pfs48/45 D3 (K287-A428) (Plasmodium falciparum 3D7, UniProt Q8I6T1)
[2] = target: Pfs48/45 D1-2 (N28-K289) (Plasmodium falciparum 3D7, UniProt Q8I6T1)
[3] = target: T1, Pfs48/45 D1-2 (Plasmodium falciparum 3D7, UniProt Q8I6T1)
[4] = target: T2, Pfs48/45 D3 (Plasmodium falciparum 3D7, UniProt Q8I6T1)
[5] = target: T3, recombinant full-length Pfs48/45 (Plasmodium falciparum 3D7, UniProt Q8I6T1)
[6] = target: T4, Pfs48/45 D2-3 (Plasmodium falciparum 3D7, UniProt Q8I6T1)
[7] = target: Pfs48/45 D2-3 (H184-A428) (Plasmodium falciparum 3D7, UniProt Q8I6T1)
[8] = target: T1, Pfs48/45 D1-2; remark: listed apart in the source
[9] = target: T2, Pfs48/45 D3; remark: listed apart in the source
[10] = target: T3, recombinant full-length Pfs48/45; remark: listed apart in the source
[11] = target: T4, Pfs48/45 D2-3; remark: listed apart in the source

T4 sequence (Q8I6T1 184-428): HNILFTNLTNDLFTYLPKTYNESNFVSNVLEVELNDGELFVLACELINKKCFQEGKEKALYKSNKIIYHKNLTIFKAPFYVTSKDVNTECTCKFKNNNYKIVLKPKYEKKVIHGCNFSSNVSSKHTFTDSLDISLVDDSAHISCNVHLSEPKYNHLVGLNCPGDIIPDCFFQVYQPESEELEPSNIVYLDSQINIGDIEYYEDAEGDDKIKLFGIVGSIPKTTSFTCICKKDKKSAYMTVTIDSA
Pfs48/45 D2-3 (H184-A428), sequence (Q8I6T1 whole entry, looked up): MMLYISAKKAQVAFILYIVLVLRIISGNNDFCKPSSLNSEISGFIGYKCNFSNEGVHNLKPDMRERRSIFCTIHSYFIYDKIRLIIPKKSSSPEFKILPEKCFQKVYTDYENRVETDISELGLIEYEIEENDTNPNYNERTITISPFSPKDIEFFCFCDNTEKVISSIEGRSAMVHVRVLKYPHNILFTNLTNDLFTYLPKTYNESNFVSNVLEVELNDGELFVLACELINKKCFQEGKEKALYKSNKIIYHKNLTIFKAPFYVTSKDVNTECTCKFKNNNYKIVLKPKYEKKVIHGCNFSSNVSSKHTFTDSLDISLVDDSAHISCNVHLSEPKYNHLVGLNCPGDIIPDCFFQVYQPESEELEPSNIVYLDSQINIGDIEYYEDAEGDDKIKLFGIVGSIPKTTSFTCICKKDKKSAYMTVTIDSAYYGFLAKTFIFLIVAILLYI
Pfs48/45 D3 (K287-A428), sequence (Q8I6T1 whole entry, looked up): as above
Pfs48/45 D1-2 (N28-K289), sequence (Q8I6T1 whole entry, looked up): as above
T1 sequence (Q8I6T1 28-289): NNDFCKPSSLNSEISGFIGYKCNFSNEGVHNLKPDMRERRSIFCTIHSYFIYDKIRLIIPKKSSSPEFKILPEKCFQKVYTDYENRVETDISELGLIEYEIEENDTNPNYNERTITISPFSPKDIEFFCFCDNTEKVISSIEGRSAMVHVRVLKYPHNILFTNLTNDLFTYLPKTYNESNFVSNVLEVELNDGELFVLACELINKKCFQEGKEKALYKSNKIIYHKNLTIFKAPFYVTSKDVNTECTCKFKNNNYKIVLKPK
T2 sequence (Q8I6T1 287-428): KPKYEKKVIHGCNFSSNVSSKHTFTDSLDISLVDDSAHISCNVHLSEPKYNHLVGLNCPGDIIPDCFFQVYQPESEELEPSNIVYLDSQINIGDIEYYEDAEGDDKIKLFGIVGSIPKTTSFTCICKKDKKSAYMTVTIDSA
T3 sequence (Q8I6T1 28-428): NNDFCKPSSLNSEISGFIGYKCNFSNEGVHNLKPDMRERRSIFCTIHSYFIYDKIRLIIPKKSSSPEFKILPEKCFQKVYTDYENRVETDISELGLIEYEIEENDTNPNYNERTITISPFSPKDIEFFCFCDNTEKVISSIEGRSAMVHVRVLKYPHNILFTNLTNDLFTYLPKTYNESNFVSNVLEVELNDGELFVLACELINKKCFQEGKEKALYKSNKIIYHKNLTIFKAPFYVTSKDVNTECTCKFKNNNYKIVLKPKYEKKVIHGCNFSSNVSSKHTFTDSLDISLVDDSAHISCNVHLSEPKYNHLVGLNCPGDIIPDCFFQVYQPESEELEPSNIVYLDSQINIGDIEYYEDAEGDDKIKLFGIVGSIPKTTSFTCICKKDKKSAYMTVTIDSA

B1: RUPA-50 (hIgG1) (antibody, V domains shown)
VH: QVHLVESGGGVVQPGRSLRLSCAASGFTFRSYGMHWVRRVPGKGLEWVATISYDETFKDYPDSVKGRFTISRDNSKNTLFLQMNSLRPADTAVYYCAKDRAHSMHYFEYWGRGTLVTVSS
VL: SYELTQPPSVSVSPGQTARLTCSGDALPKKFAYWYQLKSGQAPVLVIYEDSKRPSGIPERFSGSSSGTTATLTISGAQVEDEADYYCYSRDGSGDQKNIFGGGTKLTVL
notes: IgG1; source: 293T cells, purified (Protein A), or produced as recombinant human IgG1 (GenScript)
Question: Does B1 bind [1]?
Answer: Result: binds

B2: RUPA-58 (hIgG1) (antibody, V domains shown)
VH: QVQLVQSGPEAKKPGASVKVSCQASGYPFSGYYMHWLRQAPGQGLEWMGWMNPNSGGTKYAQRFQGRVTMTRDTSISTAHMELRGLRSDDTAVYYCARDYCTGSSCYRTDYDYWGQGTLVTVSS
VL: DIQMTQSPSSLSASVGDRVTITCRASQIISTYLNWYQHKPGKAPKLLIKSASTLQSGVPSRFSGSGSGTDFTLTITSLQPEDFATFYCQQSYRDPITFGQGTRLEIK
notes: as for B1
Question: Does B2 bind [2]?
Answer: Result: binds

B3: RUPA-160 (antibody, V domains shown)
VH: QVQLVQSGAEVKKPGASVKASCKASGYTFDNFDIIWARQATGQGLEWMGWMNPNTGKKGYAQNLKDRVTMTRDSSISTAYLELSSLRSEDTAVYYCVRAVGSYYGSGGWFDPWGQGTLVTVSS
VL: QSVLTQPPSASGTPGQRVTIACSGSSSNIGGNNVKWYQQLPGTAPKLVIYNNDERPPGVPDRVSGSKSGTSASLAISGVQSEDEADYYCATWDDSMKREVFGGGTKLTVL
notes: human IgG1; source: recombinant human IgG1, 293T (Protein A purified) or GenScript
Question: Does B3 bind [3]?
Answer: Result: binds

Question: Does B3 bind [4]?
Answer: Result: no binding (tested: 10 ug/ml)

Question: Does B3 bind [5]?
Answer: Result: binds

Question: Does B3 bind [6]?
Answer: Result: binds

B4: RUPA-160 (hIgG1) (antibody, V domains shown)
VH: QVQLVQSGAEVKKPGASVKASCKASGYTFDNFDIIWARQATGQGLEWMGWMNPNTGKKGYAQNLKDRVTMTRDSSISTAYLELSSLRSEDTAVYYCVRAVGSYYGSGGWFDPWGQGTLVTVSS
VL: QSVLTQPPSASGTPGQRVTIACSGSSSNIGGNNVKWYQQLPGTAPKLVIYNNDERPPGVPDRVSGSKSGTSASLAISGVQSEDEADYYCATWDDSMKREVFGGGTKLTVL
notes: as for B1
Question: Does B4 bind [7]?
Answer: Result: binds

Question: Does B4 bind [2]?
Answer: Result: binds

B5: RUPA-106 (antibody, V domains shown)
VH: EVELLESGGGLVQPGGSLRISCAASGFIFNTYAMSWVRQAPGKGLEWVSAISGSGRSTYYADSVKGRFTISRDNSNNTLYLQMNSLRAEDTAVYYCAKDTHSNILYYLFDYWGQGTLVTVSS
VL: EIVLTQSPATLSLSPGERGTLSCRASQSVSSSYLGWYQQKPGQAPRLLIYGASSRATGIPDRFSGSGSGTDFTLTISRLEPEDFAVYYCHQYGISPATFGQGTKVEIK
notes: as for B3
Question: Which results are given for B5?
Answer: binding result [4]: binds; binding result [5]: binds; binding result [6]: binds

B6: RUPA-100 (antibody, V domains shown)
VH: QVQLVESGGGVVQPGRSLRLSCAASGFSFSHYGMHWVRQAPGKGLEWVAVISYDGNYKYYGDSVKGRFTISRDNFKNTLYLQMNSLRPEDTAVYYCAKGKAHSCVSTSCYTDFWGQGTLVTVPS
VL: SYELTQPPSVSVSPGQTARITCSGDALPKKYAYWYQQKSGQAPVLVIYEDSKRPSGIPERFSGSSSGTMATLTISGAQVEDEGDYYCYSTDSSYNHRGVFGGGTKLTVL
notes: as for B3
Question: Does B6 bind [4]?
Answer: Result: binds

Question: Does B6 bind [5]?
Answer: Result: binds

Question: Does B6 bind [6]?
Answer: Result: binds

B7: RUPA-54 (hIgG1) (antibody, V domains shown)
VH: QVQLVESGGGVVQPGRSLRLSCTASGFTFRSYGIHWVRQAPGKGLQWVAFISYDGRNKYYADSVKGRFTISRDNSKNTLYLQMSGLRADDTAVYYCAKDSDNDCTATSCYTVSWGQGTLVTVSS
VL: SYELTQPPSVSVSPGQTARITCSGDALPKKYAYWYQQKSGQAPVLVIYEDKKRPSGIPERFSGSSSGTMATLTISGAQVEDEADYYCYSTDSRTDHGGIFGGGTKLTVL
notes: as for B1
Question: Does B7 bind [1]?
Answer: Result: binds

B8: RUPA-100 (hIgG1) (antibody, V domains shown)
VH: QVQLVESGGGVVQPGRSLRLSCAASGFSFSHYGMHWVRQAPGKGLEWVAVISYDGNYKYYGDSVKGRFTISRDNFKNTLYLQMNSLRPEDTAVYYCAKGKAHSCVSTSCYTDFWGQGTLVTVPS
VL: SYELTQPPSVSVSPGQTARITCSGDALPKKYAYWYQQKSGQAPVLVIYEDSKRPSGIPERFSGSSSGTMATLTISGAQVEDEGDYYCYSTDSSYNHRGVFGGGTKLTVL
notes: as for B1
Question: Does B8 bind [1]?
Answer: Result: binds

B9: RUPA-29 (hIgG1) (antibody, V domains shown)
VH: QVHLVESGGGVVQPGRSLRLSCAASGFTFRSYGMHWVRLAPGKGLEWVTAIWYDGSKKHFADSVKGRFTISRDNSKNTLYLQMSSLRVEDTAVYYCARDFAHGAFYPVDWGRGTLVTVSS
VL: SYELTQPPSVSVSPGQTARITCSGDALPKKHAYWYQQKSGQAPVLVIYDDSKRPSGIPERFSGSSSGTMATLSISGAQVEDEAAYYCYSSDTSANYWVFGGGTKLTVL
notes: as for B1
Question: Does B9 bind [1]?
Answer: Result: binds

B10: RUPA-140 (antibody, V domains shown)
VH: EVQLLESGGGLVQPGGSLRLSCVASGFSFSNFAMNWVRQAPGKGLEWVSAISGSGGSTYYIDSVKGRFSISRDTSKNTLYLQMNSLRAEDTAVYYCAKVGGRSIFGEATDYWGQGSLVTVSS
VL: DIQMTQSPSSLSASVGDRVTITCRASQSINKYLNWYQQKPGRAPKLLIQVASSLQSGVPSRFSGSGSGTDFTLTISSLQPEDFATYYCQQTYTLPLIFGGGTKVEIK
notes: source: recombinant human IgG1, 293T (Protein A purified) or GenScript
Question: Does B10 bind [4]?
Answer: Result: binds

Question: Does B10 bind [5]?
Answer: Result: binds

Question: Does B10 bind [6]?
Answer: Result: binds

B11: RUPA-25 (hIgG1) (antibody, V domains shown)
VH: QVQLVQSGAEVKKPGASVKVSCTASGYNFLTHDISWVRQATGQGLEWMGWMNPNTGKKGYVQKFQGRVTMDRDMSKSTAYMELRSLTSEDTAVYYCVRGVGSYYGSGGWFDPWGQGTLVTVSS
VL: QPVLTQPPSASETPGQKVTISCSGSSSNIGSDTVSWYVQLPGTAPKLLIYNDNQRPSGVPDRFSGSKSGTSASLAISGLQSEDEADYYCATWDASLKRRVFGGGTTLTVL
notes: as for B1
Question: What does the source list for B11?
Answer: binding result [7]: binds; binding result [2]: binds

B12: RUPA-154 (antibody, V domains shown)
VH: QVQLVQSGAEVRKPGASVKVSCRTSGYTFTDYYMHWVRQAPGEGLEWMGSINPKSGGTSYAERFQGRVTMTMETSVSTAYLDLSSLRSDDTAVYYCARLLYSRAVYYYGMDVWGQGTTVTVSS
VL: SYELTQPPSVSVAPGKTARITCGGKDLGSKSVHWYQQKPGQAPVLVIYYDNIRPSGIPERFSGSNSGNTATLTISRVEAGDEADYYCQVWDSSSDHYVFGRGAKVTVL
notes: as for B3
Question: Does B12 bind [3]?
Answer: Result: binds

Question: Does B12 bind [4]?
Answer: Result: binds

Question: Does B12 bind [5]?
Answer: Result: binds

Question: Does B12 bind [6]?
Answer: Result: binds

B13: RUPA-154 (hIgG1) (antibody, V domains shown)
VH: QVQLVQSGAEVRKPGASVKVSCRTSGYTFTDYYMHWVRQAPGEGLEWMGSINPKSGGTSYAERFQGRVTMTMETSVSTAYLDLSSLRSDDTAVYYCARLLYSRAVYYYGMDVWGQGTTVTVSS
VL: SYELTQPPSVSVAPGKTARITCGGKDLGSKSVHWYQQKPGQAPVLVIYYDNIRPSGIPERFSGSNSGNTATLTISRVEAGDEADYYCQVWDSSSDHYVFGRGAKVTVL
notes: as for B1
Question: Does B13 bind [1]?
Answer: Result: binds

Question: Does B13 bind [7]?
Answer: Result: binds

Question: Does B13 bind [2]?
Answer: Result: binds

B14: RUPA-43 (antibody, V domains shown)
VH: QVLLVQSGAEVKKPGASVKVSCKASGYTFLYHDISWVRQATGQGLEWMGWMNPNTGDTGYAQRFQGRVTMTRDMSISTAYLELGSLSSEDTAVYYCARGVGSYHGSGGWLDPWGQGTLVIVSS
VL: QSVLTQPPSVSETPGQRVTISCSGTSSNIGINTVNWYQQLPGTAPKLLIHNDNQRPSGVPDRFAGSKSGSSAALAISGLQSEDEADYYCGTWDDSLKRRVFGGGTKLTVL
notes: as for B3
Question: Does B14 bind [8]?
Answer: Result: binds

Question: Does B14 bind [9]?
Answer: Result: no binding (tested: 10 ug/ml)

Question: Does B14 bind [10]?
Answer: Result: binds

Question: Does B14 bind [11]?
Answer: Result: binds

B15: RUPA-117 (antibody, V domains shown)
VH: QLQLQESGPGLVKPSETLSLTCTVSGGSISRSPYYWGWIRQPPGKGLEWFGSVYNNGSTYYNPSLKSRVTISVDTSKNQFSLKLSSVTAADTALYYCARHGGSTGMKVVVIAPPDYWGQGTLVTVSS
VL: DIQMTQSPATLSASVGDRVTITCRASQSISIWLAWYQQKPGEAPKLLIYKASSLQSGVPSRFSGSASGTKFSLTISSLQPDDFATFYCQQYHSYPYTFGQGTKLEIK
notes: as for B3
Question: What does the source list for B15?
Answer: binding result [4]: binds; binding result [5]: binds; binding result [6]: binds

B16: RUPA-89 (antibody, V domains shown)
VH: DVYLLESGGGLVQPGGSLRLSCAASGFTFSNDAMSWVRQAPGKGLEWVSGILASAPRTYYADSVKGRFIISRDNSKNTLYLQMNSLRVEDTAIYYCAKEGILRPFDPWGQGTLVTVSS
VL: QSALTQPASMSGSPGQSITISCTGTSSDVGGFKYVSWYQHHPDKAPKLIIYEVNQRPSGVSNRFSGSKSGNTASLTISGLQAEDEADYYCSSYTSITYHHVFGTGTKVTVL
notes: as for B3
Question: Does B16 bind [4]?
Answer: Result: binds

Question: Does B16 bind [5]?
Answer: Result: binds

Question: Does B16 bind [6]?
Answer: Result: binds
